This assay addresses human Fc gamma receptor 1A (human) (UniProt P12314). The experiment in a line: SPR (Biacore T200), antibody amine-coupled on CM5 chip, receptor as analyte. (Surface plasmon resonance follows binding to a sensor surface in real time, without labels.)

Sequence of human Fc gamma receptor 1A (human) (P12314 16-288 limits assumed): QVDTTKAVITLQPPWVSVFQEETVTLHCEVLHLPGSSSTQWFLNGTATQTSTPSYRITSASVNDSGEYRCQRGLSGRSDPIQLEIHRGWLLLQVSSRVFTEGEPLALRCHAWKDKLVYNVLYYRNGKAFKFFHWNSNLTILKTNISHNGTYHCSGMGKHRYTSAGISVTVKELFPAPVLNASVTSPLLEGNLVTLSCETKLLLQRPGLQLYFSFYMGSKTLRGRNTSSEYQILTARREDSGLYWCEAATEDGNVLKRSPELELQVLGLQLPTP

The substance “Anti-CD3 human IgG1 antibody, DANAPA Fc variant (D265A/N297A/P329A)” returned a Maximum response at 100 nM hFcgammaRIA (RU) of 11 RU.

For the substance “Anti-CD3 human IgG1 antibody, DAPASK Fc variant (D265A/P329A/S267K)”, the Maximum response at 100 nM hFcgammaRIA (RU) was determined as 13 RU.

“Anti-CD3 human IgG1 antibody, GADAPA Fc variant (G237A/D265A/P329A)” registered a Maximum response at 100 nM hFcgammaRIA (RU) of 16 RU.

“Anti-CD3 human IgG1 antibody, GADAPASK Fc variant (G237A/D265A/P329A/S267K)” showed a Maximum response at 100 nM hFcgammaRIA (RU) of 10 RU.

“Anti-CD3 human IgG1 antibody, LALAGA Fc variant (L234A/L235A/G237A)” came in with a Maximum response at 100 nM hFcgammaRIA (RU) of 15 RU.

In turn, “Anti-CD3 human IgG1 antibody, LALAPG Fc variant (L234A/L235A/P329G)” came in with a Maximum response at 100 nM hFcgammaRIA (RU) of 18 RU.

As for “Anti-CD3 human IgG1 antibody, LALASKPA Fc variant (L234A/L235A/S267K/P329A)”, the Maximum response at 100 nM hFcgammaRIA (RU) was 9 RU.
